Consider five compounds from patent EP1086377B1, “A METHOD OF IDENTIFYING LIGANDS TO RNA […] 70 SUBUNIT” (AstraZeneca AB, priority 1998, dated 1999).

A value given as a limit tells only on which side of the number the result lay.

Test [1] has as its target T1, Truncated sigma^70 (C-terminal 99 amino acids) (Escherichia coli, UniProt P00579).
T1 construct: made in house; GST-AsiA from E. coli DH5alpha / pARC 8105
Kind of test: Competitive ELISA for quantification of AsiA-sigma^70 interaction (GST-AsiA binding to immobilised truncated sigma^70). Also noted: species or system E. coli. The protocol: A solution of the protein product (200 pmoles/ml) in a pH 7.5 buffer comprising Tris HCl (10 mM) and sodium chloride (50 mM) was prepared and 200 µl of solution were added per well of a nickel-coated microtitre plate, followed by incubation at room temperature for a period of two hours. The microtitre plate was then washed 5 times with the buffer solution and then incubated at 37°C for one hour with a solution of bovine serum albumin (3% w/v) in the above buffer. After washing 5 times with phosphate buffered saline (PBS) with "Tween" 20 (polyoxyethylene (20) sorbitan monolaurate, 0.5% v/v), the GST-AsiA fusion protein prepared as described in Example 4.1. above (100 ng) was added together with a defined amount of a putative inhibitor of truncated sigma^70 protein (corallopyronin, myxopyronin or ripostatin) and incubated at 37°C for one hour. Further washing (5 times) with PBS-"Tween" 20 was carried out and then anti-GST antibodies (1:2000) raised in rabbits were added to the wells, with incubation at 37°C for one hour. The previous washing step was repeated and thereafter anti-rabbit IgG-horse radish peroxidase (HRP) conjugate (1:2000) was added and incubated at 37°C for one hour. A final wash with PBS-"Tween" 20 was carried out, before adding the HRP enzyme substrate, tetramethyl benzidene/ H2O2. The enzymic reaction (resulting in the development of colour) was stopped after a suitable period of time by the addition of 6N H2SO4 and the microtitre plate was "read" in a spectrophotometer using light of wavelength (λ) 450 nm.

Test [2] addresses Truncated sigma^70 (C-terminal 99 amino acids of E. coli sigma^70), (His)5-tagged (Escherichia coli) (UniProt P00579). Kind of test: competitive ELISA; His-tagged truncated sigma^70 on nickel plate, free AsiA 7 µg/ml competing with GST-AsiA 500 ng/ml; the value is the GST-AsiA binding that remains. (In general: An ELISA detects its analyte on a solid surface through an enzyme-linked reagent.)

The target of test [3] is E. coli RNA polymerase sigma^70 subunit (Escherichia coli) (UniProt P00579). In words: cell-based or functional assay.
E. coli RNA polymerase sigma^70 subunit (Escherichia coli), sequence (P00579 whole entry): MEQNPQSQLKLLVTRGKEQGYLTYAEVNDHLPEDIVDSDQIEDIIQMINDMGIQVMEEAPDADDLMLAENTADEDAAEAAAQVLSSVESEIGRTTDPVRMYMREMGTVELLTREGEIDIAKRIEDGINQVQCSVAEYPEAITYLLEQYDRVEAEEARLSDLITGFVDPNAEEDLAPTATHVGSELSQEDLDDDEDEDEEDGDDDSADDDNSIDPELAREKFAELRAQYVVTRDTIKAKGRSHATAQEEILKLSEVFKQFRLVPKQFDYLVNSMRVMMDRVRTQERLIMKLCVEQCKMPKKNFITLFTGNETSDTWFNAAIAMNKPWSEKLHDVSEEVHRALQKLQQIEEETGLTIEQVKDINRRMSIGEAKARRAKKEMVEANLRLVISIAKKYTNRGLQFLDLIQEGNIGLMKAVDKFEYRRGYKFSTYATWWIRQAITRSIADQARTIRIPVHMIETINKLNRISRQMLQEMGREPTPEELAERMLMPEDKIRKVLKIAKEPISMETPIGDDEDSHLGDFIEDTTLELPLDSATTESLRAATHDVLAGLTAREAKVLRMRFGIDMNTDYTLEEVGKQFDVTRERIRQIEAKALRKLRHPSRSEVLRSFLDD
The target in test [4] is Salmonella typhimurium RNA polymerase sigma^70 subunit (Salmonella typhimurium) (UniProt P0A2E3). Kind of test: cell-based or functional assay.
Salmonella typhimurium RNA polymerase sigma^70 subunit (Salmonella typhimurium), sequence (P0A2E3 whole entry, the tested form may be a part): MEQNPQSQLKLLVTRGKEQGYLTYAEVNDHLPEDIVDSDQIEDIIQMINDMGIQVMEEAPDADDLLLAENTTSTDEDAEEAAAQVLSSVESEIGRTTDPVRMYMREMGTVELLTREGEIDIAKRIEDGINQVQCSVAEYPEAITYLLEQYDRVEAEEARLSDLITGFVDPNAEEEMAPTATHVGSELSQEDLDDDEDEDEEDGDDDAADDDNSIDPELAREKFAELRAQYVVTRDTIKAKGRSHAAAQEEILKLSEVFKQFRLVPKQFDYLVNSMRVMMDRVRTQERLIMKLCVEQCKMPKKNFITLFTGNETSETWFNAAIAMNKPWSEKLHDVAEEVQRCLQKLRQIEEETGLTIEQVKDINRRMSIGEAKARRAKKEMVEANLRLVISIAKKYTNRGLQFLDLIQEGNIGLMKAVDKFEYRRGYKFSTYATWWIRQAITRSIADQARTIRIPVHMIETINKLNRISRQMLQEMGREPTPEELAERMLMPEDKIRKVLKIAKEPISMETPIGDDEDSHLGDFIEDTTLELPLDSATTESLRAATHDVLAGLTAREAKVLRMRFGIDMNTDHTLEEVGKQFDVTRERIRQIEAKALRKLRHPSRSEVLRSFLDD
The target of test [5] is Truncated sigma^70 (C-terminal 99 amino acids of E. coli sigma^70), (His)5-tagged (Escherichia coli) (UniProt P00579). In words: ELISA; His-tagged truncated sigma^70 on nickel plate, GST-AsiA detected with rabbit anti-GST and anti-rabbit IgG-HRP, OD 450 nm; reference without competitor.
Truncated sigma^70 (C-terminal 99 amino acids of E. coli sigma^70), (His)5-tagged (Escherichia coli), sequence (P00579 515-613): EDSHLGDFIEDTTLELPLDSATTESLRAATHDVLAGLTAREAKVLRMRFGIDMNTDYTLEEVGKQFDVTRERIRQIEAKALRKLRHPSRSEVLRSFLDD
Setting [6] is: GST-AsiA 500 ng/ml + competitor at 30 µg/ml.

T1 sequence (P00579 515-613): as above
GST-AsiA fusion protein (glutathione-S-transferase fused to the N-terminus of the bacteriophage T4 a, sequence (P08515 whole entry, the tested form may be a part): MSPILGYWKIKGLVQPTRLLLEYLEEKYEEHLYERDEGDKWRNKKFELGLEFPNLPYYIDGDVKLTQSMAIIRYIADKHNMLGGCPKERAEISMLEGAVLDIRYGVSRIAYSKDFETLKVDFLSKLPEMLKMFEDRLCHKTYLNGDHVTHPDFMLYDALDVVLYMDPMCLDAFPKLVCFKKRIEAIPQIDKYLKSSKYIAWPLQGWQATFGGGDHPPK

For `C/C=C/C/C=C(\C)C(O)CC/C(C)=C/C=C(\C)C(=O)c1c(O)cc([C@H](C)CC/C=C/NC(=O)OC)oc1=O` (some centres unmarked) [corallopyronin], the “% Binding to truncated sigma^70” value in test [1] (setting [6]) is 69%.

For the compound `C/C(=C\Cc1ccccc1)CCC(=O)C[C@H]1C[C@H](O)C/C(C)=C/C/C=C/C/C(CC(=O)O)=C\C(=O)O1` [ripostatin], the “% Binding to truncated sigma^70” value in test [1] (GST-AsiA 500 ng/ml + competitor at 1 µg/ml) is 100%; in test [1] (GST-AsiA 500 ng/ml + competitor at 10 µg/ml) it was 55%; in test [1] (GST-AsiA 500 ng/ml + competitor at 100 µg/ml), 1.5%.

“AsiA protein (anti-sigma^70 factor of bacteriophage T4, asiA gene product), released from GST-AsiA by Factor Xa” had a % Binding to truncated sigma^70 in test [2] of 12%. Moreover, in test [3], the [^3H]UTP (nmol) incorporated: E. coli RNA polymerase + 0.1 µg AsiA (control without AsiA 2.1), E. coli sigma^70 series stood at 0.57 nmol; the [^3H]UTP (nmol) incorporated: E. coli RNA polymerase + 0.1 µg AsiA (control without AsiA 2.3), S. typhimurium sigma^70 series before sigma^70 is added was 0.34 nmol; the [^3H]UTP (nmol) incorporated: E. coli RNA polymerase + 0.1 µg AsiA + 4 µg E. coli sigma^70 (reactivation) amounted to 2.3 nmol; the [^3H]UTP (nmol) incorporated: E. coli RNA polymerase + 0.1 µg AsiA + 4 µg E. coli sigma^70 preincubated with 0.1 µg AsiA was determined as 0.68 nmol. Further, the inhibition of E. coli RNA polymerase activity by 0.07 µg AsiA, T4 DNA template in test [3] was above 80%. Further, in test [4], the [^3H]UTP (nmol) incorporated: E. coli RNA polymerase + 0.1 µg AsiA + 4 µg S. typhimurium sigma^70 (reactivation) came out at 3 nmol and the [^3H]UTP (nmol) incorporated: E. coli RNA polymerase + 0.1 µg AsiA + 4 µg S. typhimurium sigma^70 preincubated with 0.1 µg AsiA was determined as 0.98 nmol.

In test [5], “GST-AsiA fusion protein (glutathione-S-transferase fused to the N-terminus of the bacteriophage T4 a (from UniProt P08515 1-218)” yielded a % Binding to truncated sigma^70 of 100%.

For myxopyronin, the “% Binding to truncated sigma^70” value in test [1] (setting [6]) was 56%.
